Results reported in article PMC11574208, “Mechanistic basis of atypical TERT promoter mutations”.

Assays:
Details in all cases: protein: recombinant;recombinant; tags: ;N-terminal His; copies: 1;1; label: 5'-32P on forward (C-rich) strand; blunt
[1] = target: T1, GABPA (GABP alpha);GABPB (GABP beta1L) (human?;human?, UniProt Q06546;Q06547 1-454;1-395, |); test: DNase I footprinting; 5 uM GABP; bound via native site, not at the unmutated proto-sites; 20 mM Tris-Cl pH 7.5, 5% glycerol, 5.2 mM MgCl2, 50 mM KCl, 1 mM TCEP, 20 nM oligo, 1 h room temperature; EMSA on 4% native PAGE, 0.5x TBE, 4 C
[2] = target: T1, GABPA (GABP alpha);GABPB (GABP beta1L); test: DNase I footprinting; 5 uM GABP; -124 de novo site and native site; 20 mM Tris-Cl pH 7.5, 5% glycerol, 5.2 mM MgCl2, 50 mM KCl, 1 mM TCEP, 20 nM oligo, 1 h room temperature; EMSA on 4% native PAGE, 0.5x TBE, 4 C
[3] = target: T1, GABPA (GABP alpha);GABPB (GABP beta1L); test: DNase I footprinting; 5 uM GABP; -146 de novo site and native site; 20 mM Tris-Cl pH 7.5, 5% glycerol, 5.2 mM MgCl2, 50 mM KCl, 1 mM TCEP, 20 nM oligo, 1 h room temperature; EMSA on 4% native PAGE, 0.5x TBE, 4 C

T1 sequence (Q06546 whole entry, chain 1 of 2): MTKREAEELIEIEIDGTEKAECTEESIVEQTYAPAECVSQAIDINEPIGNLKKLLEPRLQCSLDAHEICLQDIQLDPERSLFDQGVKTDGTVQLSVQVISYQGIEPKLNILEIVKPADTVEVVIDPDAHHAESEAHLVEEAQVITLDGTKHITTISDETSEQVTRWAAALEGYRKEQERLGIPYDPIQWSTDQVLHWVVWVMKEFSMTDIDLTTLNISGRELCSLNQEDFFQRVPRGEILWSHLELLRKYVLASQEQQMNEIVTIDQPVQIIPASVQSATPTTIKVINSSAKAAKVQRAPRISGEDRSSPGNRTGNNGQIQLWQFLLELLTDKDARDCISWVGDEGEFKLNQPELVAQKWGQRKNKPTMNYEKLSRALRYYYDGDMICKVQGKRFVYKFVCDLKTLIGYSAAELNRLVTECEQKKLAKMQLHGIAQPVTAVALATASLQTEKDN
T1 sequence (Q06547 whole entry, chain 2 of 2): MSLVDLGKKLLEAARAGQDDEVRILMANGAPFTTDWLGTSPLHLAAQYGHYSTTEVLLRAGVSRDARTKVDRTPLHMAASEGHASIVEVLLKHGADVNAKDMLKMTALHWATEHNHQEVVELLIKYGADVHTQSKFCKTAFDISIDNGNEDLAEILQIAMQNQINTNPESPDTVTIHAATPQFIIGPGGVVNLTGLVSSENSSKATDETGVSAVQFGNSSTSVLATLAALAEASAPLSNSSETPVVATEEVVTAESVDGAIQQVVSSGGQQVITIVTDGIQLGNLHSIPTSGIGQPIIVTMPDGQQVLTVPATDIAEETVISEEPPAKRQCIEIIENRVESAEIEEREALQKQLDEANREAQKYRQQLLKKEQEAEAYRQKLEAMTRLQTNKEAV

B1: TERTp WT 90 (dsDNA)
DNA 1: ACCCCGCCCCGTCCCGACCCCTCCCGGGTCCCCGGCCCAGCCCCCTCCGGGCCCTCCCAGCCCCTCCCCTTCCTTTCCGCGGCCCCGCCC
DNA 2: GGGCGGGGCCGCGGAAAGGAAGGGGAGGGGCTGGGAGGGCCCGGAGGGGGCTGGGCCGGGGACCCGGGAGGGGTCGGGACGGGGCGGGGT
binding result [1]: binds

B2: TERTp -124 mutant 90 (C228T) (dsDNA)
DNA 1: ACCCCGCCCCGTCCCGACCCCTCCCGGGTCCCCGGCCCAGCCCCTTCCGGGCCCTCCCAGCCCCTCCCCTTCCTTTCCGCGGCCCCGCCC
DNA 2: GGGCGGGGCCGCGGAAAGGAAGGGGAGGGGCTGGGAGGGCCCGGAAGGGGCTGGGCCGGGGACCCGGGAGGGGTCGGGACGGGGCGGGGT
binding result [2]: binds

B3: TERTp -146 mutant 90 (C250T) (dsDNA)
DNA 1: ACCCCGCCCCGTCCCGACCCCTTCCGGGTCCCCGGCCCAGCCCCCTCCGGGCCCTCCCAGCCCCTCCCCTTCCTTTCCGCGGCCCCGCCC
DNA 2: GGGCGGGGCCGCGGAAAGGAAGGGGAGGGGCTGGGAGGGCCCGGAGGGGGCTGGGCCGGGGACCCGGAAGGGGTCGGGACGGGGCGGGGT
binding result [3]: binds
